According to paper PMC2856910:

Target: β-cat bound to cadherin (in vitro binding studies, unpublished data) (UniProt Q02248)
Sequence of UniProt Q02248 (Q02248 whole entry, chain 1 of 2): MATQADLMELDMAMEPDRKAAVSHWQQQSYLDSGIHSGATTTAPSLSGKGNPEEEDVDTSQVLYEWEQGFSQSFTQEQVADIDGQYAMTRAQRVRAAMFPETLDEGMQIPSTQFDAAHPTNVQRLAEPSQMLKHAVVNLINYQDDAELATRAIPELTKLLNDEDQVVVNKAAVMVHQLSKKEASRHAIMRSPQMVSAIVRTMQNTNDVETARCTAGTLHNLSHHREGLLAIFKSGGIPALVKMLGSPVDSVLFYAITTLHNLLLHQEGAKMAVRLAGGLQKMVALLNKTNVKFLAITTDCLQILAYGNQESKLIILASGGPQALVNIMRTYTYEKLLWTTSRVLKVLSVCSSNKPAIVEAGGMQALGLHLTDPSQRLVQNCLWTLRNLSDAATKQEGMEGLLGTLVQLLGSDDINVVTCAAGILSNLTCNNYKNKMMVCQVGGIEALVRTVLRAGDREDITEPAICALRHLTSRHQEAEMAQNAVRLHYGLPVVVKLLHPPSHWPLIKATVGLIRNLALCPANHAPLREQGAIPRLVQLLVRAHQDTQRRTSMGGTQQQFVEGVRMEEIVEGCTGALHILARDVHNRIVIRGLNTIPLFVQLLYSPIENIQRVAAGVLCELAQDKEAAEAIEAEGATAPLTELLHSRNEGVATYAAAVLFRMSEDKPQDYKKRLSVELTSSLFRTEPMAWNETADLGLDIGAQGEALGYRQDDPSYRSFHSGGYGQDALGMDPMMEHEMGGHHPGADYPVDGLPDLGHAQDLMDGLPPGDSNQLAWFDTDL
Sequence of UniProt Q02248 (P09803 24-884, chain 2 of 2, further chain): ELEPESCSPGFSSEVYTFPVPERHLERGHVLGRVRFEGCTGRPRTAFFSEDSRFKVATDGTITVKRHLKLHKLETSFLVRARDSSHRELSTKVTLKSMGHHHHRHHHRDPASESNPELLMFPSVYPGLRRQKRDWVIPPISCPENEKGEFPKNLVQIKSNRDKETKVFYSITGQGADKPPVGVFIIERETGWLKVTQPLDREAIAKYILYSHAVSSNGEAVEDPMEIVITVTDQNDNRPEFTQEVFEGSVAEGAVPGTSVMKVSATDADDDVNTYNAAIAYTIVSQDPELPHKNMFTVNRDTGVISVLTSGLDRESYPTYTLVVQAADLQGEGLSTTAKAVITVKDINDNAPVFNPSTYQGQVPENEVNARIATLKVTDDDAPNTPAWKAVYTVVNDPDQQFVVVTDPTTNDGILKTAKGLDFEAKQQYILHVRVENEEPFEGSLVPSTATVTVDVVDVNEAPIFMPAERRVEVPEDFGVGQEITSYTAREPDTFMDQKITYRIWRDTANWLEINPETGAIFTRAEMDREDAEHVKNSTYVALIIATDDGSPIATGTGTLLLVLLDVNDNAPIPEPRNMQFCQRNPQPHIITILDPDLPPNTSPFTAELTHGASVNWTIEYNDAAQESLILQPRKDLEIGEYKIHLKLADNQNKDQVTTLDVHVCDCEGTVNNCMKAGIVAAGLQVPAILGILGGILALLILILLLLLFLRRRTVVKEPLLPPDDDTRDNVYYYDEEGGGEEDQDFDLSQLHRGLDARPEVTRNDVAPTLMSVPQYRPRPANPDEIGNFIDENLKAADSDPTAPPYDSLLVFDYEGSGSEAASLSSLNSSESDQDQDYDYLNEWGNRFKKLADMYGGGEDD

fold enhancement of binding against β-cat alone: > 10 fold
Substance: α-catenin (in vitro binding studies, unpublished data) (from UniProt P26231 1-906) (natural protein)
